Series [1] relates to MS2 coat protein. As to the kind of experiment: apparent KD of MS2 coat protein, switch ON state; designed switch direction (-1 OFF switch, 1 ON switch): -1; higher = weaker reporter binding. The settings on record: FMN input: 0 or 200 uM; Eterna round: R93 (includes R88 designs). In short, it runs like this: (§1)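 On-chip transcription from Illumina sequencing clusters produced the designed RNA switches. These were titrated with SNAP-549-labelled MS2 coat protein (twofold steps, 0.7 or 1.5 nM to 3 µM) in 100 mM Tris-HCl pH 7.5, 80 mM KCl, 4 mM MgCl2, with or without constant ligand. The apparent KD given is the per-design median of normalised cluster binding-curve fits.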

In series [2] the test system is MS2 coat protein. As to the kind of experiment: apparent KD of MS2 coat protein, switch OFF state (with FMN for OFF switches, without FMN for ON switches); designed switch direction (-1 OFF switch, 1 ON switch): -1; higher = weaker reporter binding. Conditions: FMN input: 0 or 200 uM; Eterna round: R93 (includes R88 designs). In short, it runs like this:
as §1

“GGGCCACAUGAGGAUCACCCAUGUAAGGAUAUGCUAGGGAUGGAAAAAAUUACGCAAAGCAGAAGGUACUAAAG [Janelle Amethyst 18 Mod 9 - Jieux - Exclusion 1]”: the “apparent KD of MS2 coat protein” value came out at 26.9 nM in the series with MS2 coat protein [1] and 35.5 nM in the series with MS2 coat protein [2].

As to “AAAAAACAUGAGGAUCACCCAUGUGAGGAUAUGAUGCGAAUAAAGAAAGAAGAAAGCAUCAGAAGGCACACCAA [58%, Disencluded 3, 1]”, the results for the “apparent KD of MS2 coat protein” value in the series with MS2 coat protein [1] and in the series on MS2 coat protein [2] were 29.4 nM and 52 nM, respectively.

Consider “AAGAACUCAGGAUAUGCUAAAGAAAUAAAAAUAAAUAAAGAACAUGAGGAUCACCCAUGUAGAAGGGAGAAGAA [Merkawre Sobekhotep VII]”, for which the “apparent KD of MS2 coat protein” value in the series with MS2 coat protein [1] came to 76.4 nM; in the series with MS2 coat protein [2], 46.2 nM.

As for “ACCACACAUGAGGAUCACCCAUGUGAGGAUAUCUAGAAAACCUCAUGUAAAAAAAUCUAGAGAAGGCAUAUGAA [Design 93: Pseudoknot C]”, the entries for the “apparent KD of MS2 coat protein” value in the series with MS2 coat protein [1] and in the series with MS2 coat protein [2] were 38.3 nM and 28.4 nM, respectively.

With “AUAAAGUAAGGAUAUGCGAAUAAAUAAGUAGACGAAUGAAAGCAGAAGGUACAUGAGGAUCACCCAUGUAAGAA [Ex 4 Tesla 2]”, the “apparent KD of MS2 coat protein” value in the series on MS2 coat protein [1] was 30.3 nM; in the series on MS2 coat protein [2], 19 nM.

“GAAAAGGUAGGAUAUACGAAAAAAAAGGGUAAAAUAAAUAAACAUGAGGAUCACCCAUGUAGAAGGACCAAAAG [Mat - Exclusion 2 - Tesla mod - D39]”: the “apparent KD of MS2 coat protein” value with MS2 coat protein [1] stood at 30.1 nM; in the series on MS2 coat protein [2] it was 49.6 nM.

As to “AGCUAGUCAGGAUAUACGAACAUGUCAAAAGACGUGAAGGGACAUGAGGAUCACCCAUGUAGAAGGGACUAGCU [salish99-Ex2-20]”, the “apparent KD of MS2 coat protein” value with MS2 coat protein [1] is 28.8 nM; in the series on MS2 coat protein [2], 106 nM.

For the sequence “CUCAAGUGAGGAUAUUUAAGAAAAGAAGAGAAAGAAAAGAAAAAGAAGGCACAUGAGGAUCACCCAUGUAAGAA [EteRNA is fun!]”, the “apparent KD of MS2 coat protein” value with MS2 coat protein [1] came out at 31.5 nM; in the series with MS2 coat protein [2] it was 32.8 nM.

As to “AAAACGUCAGGAUAUACAGAAGAGAUCACAAAAAAAAAAAAACAUGAGGAUCACCCAUGUAGAAGGGACAAAAA [Ex2 Malc#2]”, the “apparent KD of MS2 coat protein” value was found to be 111 nM with MS2 coat protein [1] and 115 nM with MS2 coat protein [2].

For “AGUUGGCGAGGAUAUACAUGAGGAUCACCCAUGUAAAAUAAAUAAAAAAAGGGAGAAAGUAGAAGGCGCUGACA [73%, Moding Norbert Elias, 12]”, the “apparent KD of MS2 coat protein” value in the series on MS2 coat protein [1] is 56.2 nM; with MS2 coat protein [2], 193 nM.

Consider “GGUUGUGAAGGAUAUACAUGAGGAUCACCCAUGUGAGAGAAAAAAGUGAGAAAGAAAAGUAGAAGGUCAUGACG [salish99-ex3-64]”, for which the “apparent KD of MS2 coat protein” value in the series with MS2 coat protein [1] is 30.8 nM; with MS2 coat protein [2] it was 76.2 nM.

Regarding “CCUAUGUCAGGAUAUCAGUAGUAAAAAAAAAAAAUUACUACUGAGAAGGGACAUGAGGAUCACCCAUGUCACUU [EX4 311: Super Stable 11]”, the figures for the “apparent KD of MS2 coat protein” value with MS2 coat protein [1] and with MS2 coat protein [2] were 28.5 nM and 18.8 nM, respectively.

For “AAGUUAUUAGGAUAUACUUGUGCGAUUAAUACGUUGAUAUUACAUGAGGAUCACCCAUGUAGAAGGAAUAAAAA [JR_Exc002_Sub412]”, the “apparent KD of MS2 coat protein” value was 24.4 nM in the series on MS2 coat protein [1] and 19.4 nM with MS2 coat protein [2].

Turning to “AGUCAGAGAGGAUAUACAUGAAAAAAAAAAGUUAGAUCCCUACAUGAGGAUCACCCAUGUAGAAGGCUCUGACA [Ex2 Design 151: Sub-opt 15]”, the “apparent KD of MS2 coat protein” value in the series with MS2 coat protein [1] stood at 57.8 nM; with MS2 coat protein [2], 27 nM.

Regarding “AAGAACAGAGGAUAUACAUGAAAGAAAGAAAAGAAAAGAAAACAUGAGGAUCACCCAUGUAGAAGGCUGAAGAA [EteRNA is fun!]”, the “apparent KD of MS2 coat protein” value in the series with MS2 coat protein [1] was 28.1 nM; in the series on MS2 coat protein [2] it was 25.1 nM.

“CAUAAGCAAGGAUAUACAUGAGGAUCACCCAUGUAGCUUUGCUUCGUGGGCACAACAUGUAGAAGGUGCGAAAA [Leceedon]”: the “apparent KD of MS2 coat protein” value was determined as 15 nM in the series with MS2 coat protein [1] and 13.9 nM in the series on MS2 coat protein [2].

Consider “AGCAAACAUGAGGAUCACCCAUGUCAGGAUAUGAACGAAAAUAAAUAAAAAUAAAAGUUCAGAAGGGACGAGCA [66%, Wbt, 25]”, for which the “apparent KD of MS2 coat protein” value in the series on MS2 coat protein [1] amounted to 43.2 nM; in the series with MS2 coat protein [2] it was 50.1 nM.

Turning to “AAAAAGGGAGGAUAUACAUGAGGAUCACCCAUGUAAAAAAAAACAAAAAAAAAAAAAAGUAGAAGGCCCAAAAA [here you go]”, the results for the “apparent KD of MS2 coat protein” value in the series with MS2 coat protein [1] and with MS2 coat protein [2] were 52.3 nM and 37.5 nM, respectively.

Take “CUCAUGUGAGGAUAUCAGUAGUAAAAAAAAAAAAUUACUACUGAGAAGGCACAUGAGGAUCACCCAUGUGCCUU [EX4 325: Super Stable 25]”: the entries for the “apparent KD of MS2 coat protein” value with MS2 coat protein [1] and in the series with MS2 coat protein [2] were 18.9 nM and 15.5 nM, respectively.

As for “AAGAAGGGAGGAUAUACAAAAUAAAAGAAAAGAAAGAAAGAACAUGAGGAUCACCCAUGUAGAAGGCUCAAGAA [Mersekhemre Ined]”, the results for the “apparent KD of MS2 coat protein” value with MS2 coat protein [1] and in the series with MS2 coat protein [2] were 37.2 nM and 24.9 nM, respectively.
